Measured values as given in patent US20020028202A1 (Biogen, published 2002).

Legend:
Test in all cases: staining of transfected COS-7 cells, FACS
[1] = target: T1, human gc chain mutant, LQN replaced by Ala (interdomain residues), myc-tagged, on COS-7 cells (human, UniProt P31785 23-369)
T1 construct: whole, on cells; not shown: 9 amino acid myc tag at the 5' end of the construct
T1 sequence (looked up): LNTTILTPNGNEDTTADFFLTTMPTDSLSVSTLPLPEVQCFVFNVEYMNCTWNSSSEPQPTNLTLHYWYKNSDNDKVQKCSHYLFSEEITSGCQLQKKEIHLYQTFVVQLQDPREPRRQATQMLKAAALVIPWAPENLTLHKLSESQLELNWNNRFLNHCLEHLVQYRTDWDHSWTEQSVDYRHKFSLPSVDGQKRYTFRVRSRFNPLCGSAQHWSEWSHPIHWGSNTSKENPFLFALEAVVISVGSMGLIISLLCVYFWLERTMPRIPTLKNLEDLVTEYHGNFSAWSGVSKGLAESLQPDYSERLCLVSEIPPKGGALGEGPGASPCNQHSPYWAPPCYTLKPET
Protocol: (§1) COS-7 cells are transiently transfected with 20 ug of DNA encoding the gc chain mutant or wildtype cDNA and 180 ug of herring sperm carrier DNA. After 2-3 days, COS-7 cells are harvested and analyzed by immnunofluorescent staining with anti-gc chain mAbs. MAbs are used at 10 ug/ml in PBS-1% BSA-0.02% sodium azide and allowed 30 minutes to bind to 1×10⁶ COS-7 cells. Cells are then washed 2 times, and bound mAb is detected with PE-conjugated goat anti-mouse Fc specific antibodies. The % of positive cells staining with the anti-gc chain mAb over an irrelevant control Ig is determined for a given gc chain mutant and for wildtype gc chain. […] Data are adjusted for any differences in level of expression of a mutant vs. wildtype constructs by measuring the binding of a mAb specific for a 9 amino acid myc tag engineered at the 5′ end of each gc chain construct. […] Values reduced from 100% indicate amino acid mutations which affect mAb binding.
(§2) The value “100%” indicates no effect of mutation and lower percentages indicate greater losses in binding as a result of the sequence change.

[2] = target: T2, human gc chain mutant, FNP replaced by Ala (Domain 2 Loop FQ), myc-tagged, on COS-7 cells (human, UniProt P31785 23-369)
T2 construct: whole, on cells; not shown: 9 amino acid myc tag at the 5' end of the construct
T2 sequence (looked up): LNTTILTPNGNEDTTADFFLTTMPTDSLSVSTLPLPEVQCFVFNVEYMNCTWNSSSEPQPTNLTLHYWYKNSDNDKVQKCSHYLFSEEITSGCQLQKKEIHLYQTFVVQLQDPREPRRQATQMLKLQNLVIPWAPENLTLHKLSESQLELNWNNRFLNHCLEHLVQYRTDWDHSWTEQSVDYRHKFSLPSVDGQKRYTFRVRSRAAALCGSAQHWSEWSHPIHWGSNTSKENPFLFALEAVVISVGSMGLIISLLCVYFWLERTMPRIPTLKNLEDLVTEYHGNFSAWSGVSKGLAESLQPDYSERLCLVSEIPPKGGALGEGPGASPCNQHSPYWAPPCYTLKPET
Protocol: as §1, §2

[3] = target: T3, human gc chain mutant, RFL replaced by Ala (Domain 2 Loop BC), myc-tagged, on COS-7 cells (human, UniProt P31785 23-369)
T3 construct: whole, on cells; not shown: 9 amino acid myc tag at the 5' end of the construct
T3 sequence (looked up): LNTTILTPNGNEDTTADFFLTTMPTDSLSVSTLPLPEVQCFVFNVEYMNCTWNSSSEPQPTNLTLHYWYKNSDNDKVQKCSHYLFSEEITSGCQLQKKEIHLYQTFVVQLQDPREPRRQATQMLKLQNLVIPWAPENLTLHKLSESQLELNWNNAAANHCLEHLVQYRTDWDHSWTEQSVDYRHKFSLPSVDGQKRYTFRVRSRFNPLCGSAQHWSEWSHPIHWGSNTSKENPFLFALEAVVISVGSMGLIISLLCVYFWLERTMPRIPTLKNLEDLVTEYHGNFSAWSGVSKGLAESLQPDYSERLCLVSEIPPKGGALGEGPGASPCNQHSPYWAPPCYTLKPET
Protocol: as §1, §2

[4] = target: T4, human gc chain mutant, ESQ replaced by Ala (Domain 2 Loop AB), myc-tagged, on COS-7 cells (human, UniProt P31785 23-369)
T4 construct: whole, on cells; not shown: 9 amino acid myc tag at the 5' end of the construct
T4 sequence (looked up): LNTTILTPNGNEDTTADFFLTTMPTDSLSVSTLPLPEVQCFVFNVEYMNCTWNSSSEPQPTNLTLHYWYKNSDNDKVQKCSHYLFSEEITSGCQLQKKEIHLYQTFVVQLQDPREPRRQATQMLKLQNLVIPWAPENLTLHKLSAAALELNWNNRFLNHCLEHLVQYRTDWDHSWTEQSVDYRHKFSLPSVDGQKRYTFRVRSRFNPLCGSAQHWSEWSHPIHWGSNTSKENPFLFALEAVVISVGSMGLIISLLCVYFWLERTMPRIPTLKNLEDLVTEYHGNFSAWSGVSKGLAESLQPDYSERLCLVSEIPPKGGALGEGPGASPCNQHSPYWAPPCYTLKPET
Protocol: as §1, §2

[5] = target: T5, human gc chain mutant, NLV replaced by Ala (interdomain residues), myc-tagged, on COS-7 cells (human, UniProt P31785 23-369)
T5 construct: whole, on cells; not shown: 9 amino acid myc tag at the 5' end of the construct
T5 sequence (looked up): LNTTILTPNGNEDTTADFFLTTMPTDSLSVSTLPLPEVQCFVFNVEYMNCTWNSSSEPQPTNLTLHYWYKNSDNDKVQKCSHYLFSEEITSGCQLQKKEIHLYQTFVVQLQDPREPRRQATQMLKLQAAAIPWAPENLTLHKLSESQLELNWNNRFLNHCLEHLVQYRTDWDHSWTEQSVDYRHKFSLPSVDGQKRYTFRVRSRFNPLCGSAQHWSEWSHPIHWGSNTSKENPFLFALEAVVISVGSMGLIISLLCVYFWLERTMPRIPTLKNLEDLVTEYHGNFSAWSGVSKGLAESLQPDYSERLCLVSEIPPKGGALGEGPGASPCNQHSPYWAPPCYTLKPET
Protocol: as §1, §2

[6] = target: T6, human gc chain mutant, SAQ replaced by Ala (Domain 2 Loop FQ), myc-tagged, on COS-7 cells (human, UniProt P31785 23-369)
T6 construct: whole, on cells; not shown: 9 amino acid myc tag at the 5' end of the construct
T6 sequence (looked up): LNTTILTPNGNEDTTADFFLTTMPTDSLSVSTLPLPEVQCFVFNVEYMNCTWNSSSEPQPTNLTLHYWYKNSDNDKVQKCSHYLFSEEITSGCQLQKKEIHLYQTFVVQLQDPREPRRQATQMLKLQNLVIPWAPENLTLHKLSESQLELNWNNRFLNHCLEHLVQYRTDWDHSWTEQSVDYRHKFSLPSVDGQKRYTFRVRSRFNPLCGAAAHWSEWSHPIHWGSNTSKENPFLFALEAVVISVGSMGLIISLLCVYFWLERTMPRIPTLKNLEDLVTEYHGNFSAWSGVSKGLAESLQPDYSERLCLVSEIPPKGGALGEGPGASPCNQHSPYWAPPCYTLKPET
Protocol: as §1, §2

B1: CP.B8 monoclonal antibody (murine anti-human gc chain, hybridoma ATCC HB-12107) (antibody, V domains shown)
VH: LQESGPGLVAPSQSLSITCTVSGFSLTSYGVHWVRQPPGKGLEWLGVIWAGGSTNYNSALMSRLNINRDNSKSQIFLKMNSLQTDDTAIYYCAREGSTVDSMDYWGQGTTVT
VL: DIVMTQSHKFMSTSVGDSITITCKASQDVTTAVAWYQQKPGQSPKLLIYWASTRHTGVPDRFTGSGSGTDYTLTISSVQAEDLALYYCQQHYITPWTFGGGTKLEI
notes: Used unconjugated and biotin-conjugated; also called CP.B8 mAb; mAb CP.B8
% binding to mutant gc chain/wildtype gc chain [1]: 4% | % binding to mutant gc chain/wildtype gc chain [2]: 28% | % binding to mutant gc chain/wildtype gc chain [3]: 89% | % binding to mutant gc chain/wildtype gc chain [4]: 75% | % binding to mutant gc chain/wildtype gc chain [5]: 0% | % binding to mutant gc chain/wildtype gc chain [6]: 111%
